The text below walks through data of patent US20110044994A1.

Common to all, as to test: cell-based or functional assay
Experiment [1] concerns the target JR-CSF (I309A) pseudovirus Env (HIV-1) (UniProt P20871).
The target of experiment [2] is ADA pseudovirus Env (HIV-1).
Experiment [3] deals with JR-FL (E168K) pseudovirus Env (HIV-1).
Experiment [4] concerns the target 92RW020 pseudovirus Env (HIV-1).
The target in experiment [5] is JR-CSF (Y318A) pseudovirus Env (HIV-1) (UniProt P20871).
For experiment [6], the target named is JR-CSF pseudovirus (HIV-1 Env on the virions) (HIV-1) (UniProt P20871).

B1: 1503_H05 (PG16) (antibody, V domains shown)
VH: QEKLVESGGGVVQPGGSLRLSCLASGFTFHKYGMHWVRQAPGKGLEWVALISDDGMRKYHSDSMWGRVTISRDNSKNTLYLQFSSLKVEDTAMFFCAREAGGPIWHDDVKYYDFNDGYYNYHYMDVWGKGTIVTVSS
VL: QSALTQPASVSGSPGQTITISCNGTRSDVGGFDSVSWYQQSPGKAPKVMVFDVSHRPSGISNRFSGSKSGNTASLTISGLHIEDEGDYFCSSLTDRSHRIFGGGTKVTVLG
Consider B1, for which the IC50 (ug/ml), pseudovirus neutralization, TZM-bl assay is over 1 µg/mL in experiment [1]; 0.003 µg/mL in experiment [2]; 0.002 µg/mL in experiment [3]; 0.02 µg/mL in experiment [4]; over 1 µg/mL in experiment [5]; 0.001 µg/mL in experiment [6].

B2: 1489_I13 (PG16) (antibody, V domains shown)
VH: QEQLLESGGGVVQPGGSLRLSCLASGFTFHKYGMHWVRQAPGKGLEWVALISDDGMRKYHSNSMWGRVTISRDNSKNTLYLQFSSLKVEDTAMFFCAREAGGPIWHDDVKYYDFNDGYYNYHYMDVWGKGTTVTVSS
VL: QSALTQPASVSGSPGQTITISCNGTSSDVGGFDSVSWYQQSPGKAPKVMVFDVSHRPSGISNRFSGSKSGNTASLTISGLHIEDEGDYFCSSLTDRSHRIFGGGTKVTVLG
In the case of B2, the IC50 (ug/ml), pseudovirus neutralization, TZM-bl assay in experiment [1] was over 1 µg/mL; in experiment [2], 0.008 µg/mL; in experiment [3] it was 0.005 µg/mL; in experiment [4], 0.03 µg/mL; in experiment [5], over 1 µg/mL; in experiment [6] it was 0.002 µg/mL.

B3: 1456_A12 (PG16) (antibody, V domains shown)
VH: HEQLVEAGGGVVQPGGSLRLSCLASGFTFHKYGMHWVRQAPGKGLEWVALISDDGMRKYHSDSMWGRVTISRDNSKNTLYLQFSSLRVEDTAMFFCAREAGGPIWHDDVKYYDFNDGYYNYHYMDVWGKGTKVTVSS
VL: QSALTQPASVSGSPGQTITISCNGTSRDVGGFDSVSWYQQSPGKAPKVMVFDVSHRPSGMSNRFSGSKSGNTASLTISGLHIEDEGDYFCSSLTDRSHRIFGGGTKLTVLG
B3: the IC50 (ug/ml), pseudovirus neutralization, TZM-bl assay in experiment [1] is over 1 µg/mL; in experiment [2] it was 0.005 µg/mL; in experiment [3] it was 0.003 µg/mL; in experiment [4], 0.05 µg/mL; in experiment [5], over 1 µg/mL; in experiment [6], 0.001 µg/mL.

B4: 1469_M23 (PG16) (antibody, V domains shown)
VH: QEKLVESGGGVVQPGGSLRLSCLASGFTFHKYGMHWVRQAPGKGLEWVALISDDGMRKYHSDSMWGRVTISRDNSKNTLYLQFSSLKVEDTAMFFCAREAGGPIWHDDVKYYDFNDGYYNYHYMDVWGKGTTVTVSS
VL: QSALTQPASVSGSPGQTITISCNGTRSDVGGFDSVSWYQQSPGRAPKVMVFDVSHRPSGISNRFSGSKSGNTASLTISGLHIEDEGDYFCSSLTDRSHRIFGGGTKLTVLG
With B4, the IC50 (ug/ml), pseudovirus neutralization, TZM-bl assay is over 1 µg/mL in experiment [1]; 0.005 µg/mL in experiment [2]; 0.005 µg/mL in experiment [3]; 0.05 µg/mL in experiment [4]; over 1 µg/mL in experiment [5]; 0.002 µg/mL in experiment [6].
